Experimental data from US20230265151A1, “GIP/GLP1 CO-AGONIST COMPOUNDS” (priority 2020, published 2023).
*1 amine or outer side, *2 acyl side, *3 side chain or, on linkers, in order; H or OH if unused. Where no end group is shown, it is not given here. Side-chain parts run from the residue outwards. [ ]: non-standard residue; d: D form. The star is where a group is joined. αMePhe(2-F) = C[C@](N)(Cc1ccccc1F)C(=O)O; γGlu = O=C(O)[C@H](CCC(=O)[*:2])N[*:1]; αMeY = C[C@](N)(Cc1ccc(O)cc1)C(=O)O; 4Pal = N[C@@H](Cc1ccncc1)C(=O)O; αMeL = CC(C)C[C@](C)(N)C(=O)O; Lauroyl = CCCCCCCCCCCC(=O)*; Orn = NCCC[C@H](N)C(=O)O; AEEA = NCCOCCOCC(=O)O; Aib = CC(C)(N)C(=O)O

Legend:
[1] = target: T1, human glucagon receptor (human, UniProt P47871 26-477); experiment: SPA competition vs [125I]-Gcg, hGcgR membranes
T1 construct: whole, on cells; also called hGCGR; hGcgR
T1 sequence (P47871 26-477): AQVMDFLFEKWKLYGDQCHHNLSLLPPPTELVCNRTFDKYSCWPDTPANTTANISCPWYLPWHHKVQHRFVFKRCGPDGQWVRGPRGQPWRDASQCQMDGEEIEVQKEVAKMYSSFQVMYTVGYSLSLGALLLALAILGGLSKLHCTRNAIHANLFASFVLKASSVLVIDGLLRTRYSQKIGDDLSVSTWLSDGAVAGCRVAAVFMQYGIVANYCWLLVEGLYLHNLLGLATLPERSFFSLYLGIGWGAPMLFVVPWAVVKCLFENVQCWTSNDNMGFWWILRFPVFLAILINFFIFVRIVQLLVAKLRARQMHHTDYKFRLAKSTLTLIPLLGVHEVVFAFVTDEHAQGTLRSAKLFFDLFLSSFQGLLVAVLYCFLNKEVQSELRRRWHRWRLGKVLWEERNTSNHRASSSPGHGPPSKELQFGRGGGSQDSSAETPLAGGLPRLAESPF
Description: The binding buffer contains 25 mM 4-(2-hydroxyethyl)-1-piperazineethanesulfonic acid (HEPES), pH 7.4, 2.5 mM CaCl₂, 1 mM MgCh, 0.1% (w/v) bacitracin (Research Products), 0.003% (w/v) Polyoxyethylenesorbitan monolaurate (TWEEN®-20), and Roche Complete™ Protease Inhibitors without EDTA. […] Plates are sealed and mixed on a plate shaker (setting 6) for 1 minute and read with a PerkinElmer Trilux MicroBeta® scintillation counter after 12 hours of incubation/settling time at room temperature.
Data are analyzed using four-parameter (curve maximum, curve minimum, IC₅₀, Hill slope) nonlinear regression routines (Genedata Screener, version 12.0.4, Genedata AG, Basal, Switzerland). […] Values for Kᵢ are reported as the geometric mean, with error expressed as the standard error of the mean (SEM) and n is equal to the number of independent replicates (determined in assays performed on different days).

[2] = target: T2, human GIP receptor (human, UniProt P48546 22-466); experiment: SPA competition vs [125I]-GIP, hGIPR membranes
T2 construct: whole, on cells; also called hGIPR; human glucose-dependent insulinotropic polypeptide receptor
T2 sequence (looked up): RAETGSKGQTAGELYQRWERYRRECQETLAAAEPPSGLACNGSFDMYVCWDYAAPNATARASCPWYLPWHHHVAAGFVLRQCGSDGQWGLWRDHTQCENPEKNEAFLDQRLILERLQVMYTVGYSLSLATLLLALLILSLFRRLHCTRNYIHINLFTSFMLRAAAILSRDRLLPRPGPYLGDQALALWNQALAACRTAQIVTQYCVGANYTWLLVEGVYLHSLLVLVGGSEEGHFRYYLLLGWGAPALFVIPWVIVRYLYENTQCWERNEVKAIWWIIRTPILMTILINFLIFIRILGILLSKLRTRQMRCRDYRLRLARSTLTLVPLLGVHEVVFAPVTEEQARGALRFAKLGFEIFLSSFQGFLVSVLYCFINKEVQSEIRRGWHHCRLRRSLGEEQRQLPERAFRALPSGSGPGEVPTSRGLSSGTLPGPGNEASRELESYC

[3] = target: T3, human GLP-1 receptor (human, UniProt P43220 24-463); experiment: SPA competition vs [125I]-GLP-1, hGLP-1R membranes
T3 construct: whole, on cells; also called hGLP-1R; human glucagon-like peptide-1 receptor
In short: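 Competition binding in 25 mM HEPES pH 7.4, 2.5 mM CaCl₂, 1 mM MgCl₂, 0.1% bacitracin, 0.003% TWEEN-20, EDTA-free protease inhibitors. IC₅₀ from four-parameter nonlinear fit; Kᵢ given as geometric mean ± SEM, n = independent replicates on different days.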

| Binder | Ki [1] [pM] | Ki [2] [pM] | Ki [3] [pM] |
| --- | --- | --- | --- |
| YXEGTXTSDXXIXLDXKAQXEFIXXLIKGGPSSGAPPPS (Aib2, αMeF(2F)6, 4Pal10, Aib11, αMeL13, Orn16, K17(Z1), Aib20, D-Glu24, αMeY25, K28(Z1), C-term NH2; Z1=AEEA3-(γ-Glu)-CO-(CH2)10-CH3) | 85900 | 20.7 | 275 |
| YXEGTXTSDKXIXLDXKAQXXFIXXLIEGGPSSGAPPPS (Aib2, αMeF(2F)6, K10(Z1), Aib11, αMeL13, Orn16, K17(Z1), Aib20, Orn21, D-Glu24, αMeY25, C-term NH2; Z1=AEEA2-(γ-Glu)-CO-(CH2)10-CH3) | 58400 | 21.4 | 167 |
| YXEGTXTSDXXIXLDXQAQXXFIKXLIKGGPSSGAPPPS (Aib2, αMeF(2F)6, 4Pal10, Aib11, αMeL13, Orn16, Aib20, Orn21, K24(Z1), αMeY25, K28(Z1), C-term NH2; Z1=AEEA2-(γ-Glu)-(10-(4-carboxyphenoxy)decanoyl)) | 131000 | 31.2 | 373 |
| YXEGTXTSDXXIXLDXKAQXXFIXXLIKGGPSSGAPPPS (Aib2, αMeF(2F)6, 4Pal10, Aib11, αMeL13, Orn16, K17(Z1), Aib20, Orn21, D-Glu24, αMeY25, K28(Z1), C-term NH2; Z1=AEEA3-(γ-Glu)-CO-(CH2)10-CH3) | 81200 | 9.65 | 150 |
| YXEGTXTSDXXGXLDXQAQXXFIKXLIKGGPSSGAPPPS (Aib2, αMeF(2F)6, 4Pal10, Aib11, αMeL13, Orn16, Aib20, Orn21, K24(Z1), αMeY25, K28(Z1), C-term NH2; Z1=AEEA2-(γ-Glu)-CO-(CH2)12-CO2H, G at position 12) | 592000 | 53.9 | 386 |
| Y[Aib]EGT[αMePhe(2-F)]TSDK([AEEA-AEEA-γGlu-Lauroyl])[Aib]I[αMeL]LD[Orn]K([AEEA-AEEA-γGlu-Lauroyl])AQ[Aib][4Pal]FI[dE][αMeY]LIEGGPSSGAPPPS-NH2 | 51800 | 15.2 | 156 |
| YXEGTXTSDXSIXLDXKAQXEFIXXLIEGGKSSGAPPPS (Aib2, αMeF(2F)6, 4Pal10, αMeL13, Orn16, K17(Z1), Aib20, D-Glu24, αMeY25, K31(Z1), C-term NH2; Z1=AEEA2-(γ-Glu)-CO-(CH2)14-CH3) | 1460 | 50.1 | 362 |
| YXEGTXTSDXSIXLDXKAQXEFIXXLIEGGKSSGAPPPS (Aib2, αMeF(2F)6, 4Pal10, αMeL13, Orn16, K17(Z1), Aib20, D-Glu24, αMeY25, K31(Z1), C-term NH2; Z1=AEEA2-(γ-Glu)-CO-(CH2)12-CH3) | 4290 | 24 | 139 |
| YXEGTXTSDKXIXLDXKAQXEXIXXLIEGGPSSGAPPPS (Aib2, αMeF(2F)6, K10(Z1), Aib11, αMeL13, Orn16, K17(Z1), Aib20, αMeF22, D-Glu24, αMeY25, C-term NH2; Z1=AEEA3-(γ-Glu)-CO-(CH2)10-CH3) | 64900 | 37.2 | 412 |
